Measurements: patent publication US20210371525A1

Target: CD277 (BTN3A1) on Jeko-1 cells (UniProt O00481)
Assay: cell-based or functional assay

Chain of CD277 (BTN3A1) on Jeko-1 cells (O00481 30-513 limits assumed): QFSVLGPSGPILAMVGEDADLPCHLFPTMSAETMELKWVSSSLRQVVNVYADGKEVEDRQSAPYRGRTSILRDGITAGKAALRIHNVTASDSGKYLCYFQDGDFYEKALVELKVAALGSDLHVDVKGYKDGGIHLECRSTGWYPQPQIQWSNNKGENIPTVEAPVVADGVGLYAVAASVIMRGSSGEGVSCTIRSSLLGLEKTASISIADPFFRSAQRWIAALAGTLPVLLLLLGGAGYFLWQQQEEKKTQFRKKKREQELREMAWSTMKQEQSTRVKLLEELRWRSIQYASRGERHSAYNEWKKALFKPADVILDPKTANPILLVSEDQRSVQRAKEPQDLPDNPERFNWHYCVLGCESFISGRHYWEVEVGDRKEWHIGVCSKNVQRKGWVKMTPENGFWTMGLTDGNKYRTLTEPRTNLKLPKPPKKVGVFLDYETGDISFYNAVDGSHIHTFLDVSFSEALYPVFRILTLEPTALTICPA

B1: human Vγ9Vδ2-TCR on cultured Vγ9Vδ2-T cells (TCR, V domains shown)
V domain 1: AGHLEQPQISSTKTLSKTARLECVVSGITISATSVYWYRERPGEVIQFLVSISYDGTVRKESGIPSGKFEVDRIPETSTSTLTIHNVEKQDIATYYCALWEAQQELGKKIKVFGPGTKLIITD
V domain 2: AIELVPEHQTVPVSIGVPATLRCSMKGEAIGNYYINWYRKTQGNTMTFIYREKDIYGPGFKDNFQGDIDIAKNLAVLKILAPSERDEGSYYCACDTLGMGGEYTDKLIFGKGTRVTVEP
decrease of 1D7-5C8-induced lysis of Jeko-1 cells with anti-CD277 mAb 103.2 (10 µg/mL): 11.4% | specific lysis of Jeko-1 cells at 10 pM 1D7-5C8 with anti-CD277 mAb 103.2 (10 µg/mL): 18.2%
